Reference: patent US20240115722A1 (RUTGERS THE STATE UNIVERSITY OF NEW JERSEY, published 2024)
Numbering of substitutions follows the chain as printed.

B1: VH3/VK2 humanized 11C12 antibody (antibody, human IgG1, kappa)
heavy: not shown
light: DIVMTQSPDSLAVSLGERATINCKASQSVDYDGDSYMNWYQQKPGKAPKLLIYGASNLESGIPDRFSGSGSGTDFTLTISRLEPEDAASYYCQQSNEDPFTFGQGTKLEIKRTVAAPSVFIFPPSDEQLKSGTASVVCLLNNFYPREAKVQWKVDNALQSGNSQESVTEQDSKDSTYSLSSTLTLSKADYEKHKVYACEVTHQGLSSPVTKSFNRGEC
notes: Human IgG1/kappa; tested as HEK293 EBNA supernatant; also called H3K2
B2: VH0/VK1 (antibody, human IgG1, kappa, V domains shown)
VH: EVTLKESGGGLVQPGGSRKLSCAASGFTFSTFGIHWVRQAPEKGLEWVAYISGASTTIYYADTVKGRFTISRDNPKNTLFLQMTSLRSEDTAMYYCARYGTSFPYGLDYWGQGTSVTVSS
VL: DIVMTQSPGSLAVSLGERATINCKASQSVDYDGDSYMNWYQQKPGKAPKLLIYGASNLESGIPDRFSGSGSGTDFTLTISRLEEEDAASYYCQQSNEDPFTFGQGTKLEIKR
notes: tested as HEK supernatant; also called control antibody (chimeric heavy chain with humanized VK1 light chain)
B3: VH1/VK1 humanized 11C12 antibody (antibody, human IgG1, kappa)
heavy: not shown
light: B1 light with D9G, P84E
notes: Human IgG1/kappa; tested as HEK293 EBNA supernatant; also called H1K1
B4: VH1/VK2 humanized 11C12 antibody (antibody, human IgG1, kappa)
heavy: not shown
light: B1 light
notes: Human IgG1/kappa; tested as HEK293 EBNA supernatant; also called H1K2
B5: VH1/VK3 humanized 11C12 antibody (antibody, human IgG1, kappa)
heavy: not shown
light: B1 light with S89V
notes: Human IgG1/kappa; tested as HEK293 EBNA supernatant; also called H1K3
B6: VH1/VK4 humanized 11C12 antibody (antibody, human IgG1, kappa)
heavy: not shown
light: B1 light with A25S
notes: Human IgG1/kappa; tested as HEK293 EBNA supernatant; also called H1K4
B7: VH1/VK5 humanized 11C12 antibody (antibody, human IgG1, kappa)
heavy: not shown
light: B1 light with A25S, S89V
notes: Human IgG1/kappa; tested as HEK293 EBNA supernatant; also called H1K5
B8: VH2/VK1 humanized 11C12 antibody (antibody, human IgG1, kappa)
heavy: not shown
light: B1 light with D9G, P84E
notes: Human IgG1/kappa; tested as HEK293 EBNA supernatant; also called H2K1
B9: VH2/VK2 humanized 11C12 antibody (antibody, human IgG1, kappa)
heavy: not shown
light: B1 light
notes: Human IgG1/kappa; tested as HEK293 EBNA supernatant; also called H2K2
B10: VH2/VK3 humanized 11C12 antibody (antibody, human IgG1, kappa)
heavy: not shown
light: B1 light with S89V
notes: Human IgG1/kappa; tested as HEK293 EBNA supernatant; also called H2K3
B11: VH2/VK4 humanized 11C12 antibody (antibody, human IgG1, kappa)
heavy: not shown
light: B1 light with A25S
notes: Human IgG1/kappa; tested as HEK293 EBNA supernatant; also called H2K4
B12: VH2/VK5 humanized 11C12 antibody (antibody, human IgG1, kappa)
heavy: not shown
light: B1 light with A25S, S89V
notes: Human IgG1/kappa; tested as HEK293 EBNA supernatant; also called H2K5
B13: VH3/VK1 humanized 11C12 antibody (antibody, human IgG1, kappa)
heavy: not shown
light: B1 light with D9G, P84E
notes: Human IgG1/kappa; tested as HEK293 EBNA supernatant; also called H3K1
B14: VH3/VK3 humanized 11C12 antibody (antibody, human IgG1, kappa)
heavy: not shown
light: B1 light with S89V
notes: Human IgG1/kappa; tested as HEK293 EBNA supernatant; also called H3K3
B15: VH3/VK5 humanized 11C12 antibody (antibody, human IgG1, kappa)
heavy: not shown
light: B1 light with A25S, S89V
notes: Human IgG1/kappa; tested as HEK293 EBNA supernatant; also called H3K5
B16: VH4/VK1 humanized 11C12 antibody (antibody, human IgG1, kappa, V domains shown)
VH: B2 VH with T3Q, K5V, R18L, E42G, P75S, F80Y, T84N, S88A, M93V, S115L
VL: B2 VL
notes: Human IgG1/kappa; tested as HEK293 EBNA supernatant; also called H4K1
B17: VH4/VK2 humanized 11C12 antibody (antibody, human IgG1, kappa, V domains shown)
VH: B2 VH with T3Q, K5V, R18L, E42G, P75S, F80Y, T84N, S88A, M93V, S115L
VL: B2 VL with G9D, E84P
notes: Human IgG1/kappa; tested as HEK293 EBNA supernatant; also called H4K2
B18: VH4/VK5 humanized 11C12 antibody (antibody, human IgG1, kappa, V domains shown)
VH: B2 VH with T3Q, K5V, R18L, E42G, P75S, F80Y, T84N, S88A, M93V, S115L
VL: B2 VL with G9D, A25S, E84P, S89V
notes: Human IgG1/kappa; tested as HEK293 EBNA supernatant; also called H4K5
B19: VH5/VK1 humanized 11C12 antibody (antibody, human IgG1, kappa, V domains shown)
VH: EVQLVESGGGLVQPGGSLKLSCAASGFTFSTFGIHWVRQAPGKGLEWVAYISGASTTIYYADSVKGRFTISRDNSKNTLYLQMNSLRAEDTAVYYCARYGTSFPYGLDYWGQGTLVTVSS
VL: B2 VL
notes: Human IgG1/kappa; tested as HEK293 EBNA supernatant; also called H5K1
B20: VH5/VK5 humanized 11C12 antibody (antibody, human IgG1, kappa, V domains shown)
VH: B19 VH
VL: B2 VL with G9D, A25S, E84P, S89V
notes: Human IgG1/kappa; tested as HEK293 EBNA supernatant; also called H5K5
B21: VH6/VK1 humanized 11C12 antibody (antibody, human IgG1, kappa, V domains shown)
VH: B19 VH with Y50S
VL: B2 VL
notes: Human IgG1/kappa; tested as HEK293 EBNA supernatant; also called H6K1
B22: VH6/VK2 humanized 11C12 antibody (antibody, human IgG1, kappa, V domains shown)
VH: B19 VH with Y50S
VL: B2 VL with G9D, E84P
notes: Human IgG1/kappa; tested as HEK293 EBNA supernatant; also called H6K2
B23: VH6/VK3 humanized 11C12 antibody (antibody, human IgG1, kappa, V domains shown)
VH: B19 VH with Y50S
VL: B2 VL with G9D, E84P, S89V
notes: Human IgG1/kappa; tested as HEK293 EBNA supernatant; also called H6K3
B24: VH6/VK4 humanized 11C12 antibody (antibody, human IgG1, kappa, V domains shown)
VH: B19 VH with Y50S
VL: B2 VL with G9D, A25S, E84P
notes: Human IgG1/kappa; tested as HEK293 EBNA supernatant; also called H6K4
B25: VH6/VK5 humanized 11C12 antibody (antibody, human IgG1, kappa, V domains shown)
VH: B19 VH with Y50S
VL: B2 VL with G9D, A25S, E84P, S89V
notes: Human IgG1/kappa; tested as HEK293 EBNA supernatant; also called H6K5
B26: VH1/VK0 (antibody, human IgG1, kappa, V domains shown)
VH: B2 VH with K5V, E42G, P75S, F80Y, T84N
VL: B2 VL with E17Q, N22S, K46Q, A47P, D64A, T78N, S80H, R81P, L82V, Q104S
notes: tested as HEK supernatant; also called control antibody (humanized VH1 heavy chain with chimeric light chain)

Target: T1, recombinant human EphA5 (rhEphA5) antigen (human, UniProt P54756 25-573)
T1 construct: also called human EphA5 (R and D systems, Cat. No. 3036-A5); recombinant EphA5
T1 sequence (P54756 25-573 limits assumed): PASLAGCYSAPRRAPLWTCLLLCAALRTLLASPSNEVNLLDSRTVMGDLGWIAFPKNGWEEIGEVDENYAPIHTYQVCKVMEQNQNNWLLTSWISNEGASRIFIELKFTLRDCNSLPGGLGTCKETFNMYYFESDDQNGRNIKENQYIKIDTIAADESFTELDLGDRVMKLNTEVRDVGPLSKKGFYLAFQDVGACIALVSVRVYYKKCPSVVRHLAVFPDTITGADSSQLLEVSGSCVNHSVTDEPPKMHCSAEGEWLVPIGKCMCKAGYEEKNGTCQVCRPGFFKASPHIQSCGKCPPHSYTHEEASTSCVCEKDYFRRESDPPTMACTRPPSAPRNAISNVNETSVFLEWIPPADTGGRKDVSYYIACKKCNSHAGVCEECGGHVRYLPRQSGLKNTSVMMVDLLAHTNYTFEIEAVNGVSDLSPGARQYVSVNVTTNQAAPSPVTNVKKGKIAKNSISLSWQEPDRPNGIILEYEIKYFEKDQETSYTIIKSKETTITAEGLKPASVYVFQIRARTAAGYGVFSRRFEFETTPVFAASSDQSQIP
Assay: SPR single-cycle kinetics (Biacore T200), IgG from HEK supernatant captured on anti-human IgG CM5 chip, rhEphA5 as analyte, 1:1 fit
Design: Relative KD: reference not given here
Procedure: Kinetic analysis was carried out on a Biacore T200. Each antibody was captured on a CM5 chip coupled with an anti-human IgG using standard amine chemistry before increasing concentrations of antigen were injected and a single off-rate was determined.
Kinetic experiments were performed at 25° C. on a Biacore T200 running Biacore T200 Control software V2.0.1 and Evaluation software V3.0 (Cytiva, Uppsala, Sweden).
HBS-P+ (Cytiva, Uppsala, Sweden), supplemented with 1% BSA (Sigma, Dorset, UK) was used as running buffer as well as for ligand and analyte dilutions. Supernatants containing IgG were diluted in running buffer to 1 μg/mL. At the start of each cycle, antibodies were loaded onto Fc2, Fc3 and Fc4 of an anti-human IgG CM5 sensor chip (Cytiva, Little Chalfont, UK). Ig were captured at a flow rate of […] to give an immobilization level (RL) of ˜60 RU. The surface was then allowed to stabilize.

B1 and B2 are within 1.5-fold of each other in Kd: 0.968 nM for the first, 1.12 nM for the second.

B3 and B4 are within 1.5-fold of each other in Kd: 1.02 nM for the first, 0.968 nM for the second.

B5 and B6 are within 1.5-fold of each other in Kd: 0.948 nM for the first, 1.1 nM for the second.

B7 and B8 are within 1.5-fold of each other in Kd: 1.12 nM for the first, 0.89 nM for the second.

B9 and B10 are within 1.5-fold of each other in Kd: 0.971 nM for the first, 0.985 nM for the second.

B11 and B12 are within 1.5-fold of each other in Kd: 0.917 nM for the first, 1.05 nM for the second.

B13 and B14 are within 1.5-fold of each other in Kd: 0.884 nM for the first, 1.01 nM for the second.

B15 and B16 are within 1.5-fold of each other in Kd: 1.1 nM for the first, 0.975 nM for the second.

B17 and B18 are within 1.5-fold of each other in Kd: 0.854 nM for the first, 0.996 nM for the second.

B19 and B20 are within 1.5-fold of each other in Kd: 0.947 nM for the first, 1.03 nM for the second.

B21 and B22 are within 1.5-fold of each other in Kd: 10 nM for the first, 9.49 nM for the second.

B23 and B24 are within 1.5-fold of each other in Kd: 6.52 nM for the first, 9.76 nM for the second.

First: B25
Second: B26
The Kd of the first is 6.8-fold higher: 7.1 nM for the first, 1.04 nM for the second. The second binds more tightly here.

Going from B1 to B2, the “Relative KD” value rises from 0.73 to 0.84.

First: B3
Second: B4
The “Relative KD” value of the first is higher: 0.77 for the first, 0.73 for the second.

Compared with B5, B6 is higher in “Relative KD” value: 0.71 for the first, 0.83 for the second.

First: B7
Second: B8
The “Relative KD” value of the first is higher: 0.84 for the first, 0.67 for the second.

Going from B9 to B10, the “Relative KD” value rises from 0.73 to 0.74.

First: B11
Second: B12
The “Relative KD” value of the first is lower: 0.69 for the first, 0.79 for the second.

First: B13
Second: B14
The “Relative KD” value of the first is lower: 0.66 for the first, 0.76 for the second.

First: B15
Second: B16
The “Relative KD” value of the first is higher: 0.83 for the first, 0.73 for the second.

First: B17
Second: B18
The “Relative KD” value of the first is lower: 0.64 for the first, 0.75 for the second.

Going from B19 to B20, the “Relative KD” value rises from 0.71 to 0.77.

First: B21
Second: B22
The “Relative KD” value of the first is higher: 7.52 for the first, 7.14 for the second.

Compared with B23, B24 is higher in “Relative KD” value: 4.9 for the first, 7.34 for the second.

First: B25
Second: B26
The “Relative KD” value of the first is higher: 5.34 for the first, 0.78 for the second.

B1 and B2 are within 1.5-fold of each other in koff: 0.0013 s⁻¹ for the first, 0.00137 s⁻¹ for the second.

B3 and B4 are within 1.5-fold of each other in koff: 0.00128 s⁻¹ for the first, 0.00126 s⁻¹ for the second.

B5 and B6 are within 1.5-fold of each other in koff: 0.00125 s⁻¹ for the first, 0.00137 s⁻¹ for the second.

B7 and B8 are within 1.5-fold of each other in koff: 0.00139 s⁻¹ for the first, 0.0012 s⁻¹ for the second.

B9 and B10 are within 1.5-fold of each other in koff: 0.00126 s⁻¹ for the first, 0.00132 s⁻¹ for the second.

B11 and B12 are within 1.5-fold of each other in koff: 0.00126 s⁻¹ for the first, 0.0014 s⁻¹ for the second.

B13 and B14 are within 1.5-fold of each other in koff: 0.00123 s⁻¹ for the first, 0.00133 s⁻¹ for the second.

B15 and B16 are within 1.5-fold of each other in koff: 0.00143 s⁻¹ for the first, 0.00129 s⁻¹ for the second.

B17 and B18 are within 1.5-fold of each other in koff: 0.00114 s⁻¹ for the first, 0.00137 s⁻¹ for the second.

B19 and B20 are within 1.5-fold of each other in koff: 0.00127 s⁻¹ for the first, 0.0014 s⁻¹ for the second.

B21 and B22 are the same in koff: 0.165 s⁻¹ for the first, 0.165 s⁻¹ for the second.

Going from B23 to B24, the koff falls from 0.341 s⁻¹ to 0.209 s⁻¹ (1.6-fold).

Going from B25 to B26, the koff falls from 0.285 s⁻¹ to 0.00127 s⁻¹ (220-fold).
